Where a chain is given by its changes, count along the chain named. “Also recorded” adds a separate entry of the source. Values belong to the molecule of their own block, whether it stands above or below them.
What was measured:
hCLDN-5 [1] = experiment: Epitope analysis by hCLDN-5/hCLDN-1 chimeric CLDN (FACS), loop assignment; format: binding, human; conditions: antibody concentration 5 μg/mL, hCLDN-5/hCLDN-1 chimeras
1-1-5 = target: T1, 1-1-5 (Homo sapiens, UniProt O00501, A34S/A72N/D37G/E76T/F35Y/G26A/H38D/H61Q/K48E/L36A/M29Q/M62I/Q31R/T33Y/T45A/T46M/T75S/V32I/V56S/V70L/W47Y/Y67F); experiment: Epitope analysis FACS, chimeric protein 1-1-5; format: binding; conditions: antibody concentration 5 μg/mL; first extracellular loop substituted with hCLDN-1
T1 construct: expressed in transfected cells; host or cells: retrovirus-infected cells (pCX4pur)
T1 sequence (O00501 1-218 G26A/M29Q/Q31R/V32I/T33Y/A34S/F35Y/L36A/D37G/H38D/T45A/T46M/W47Y/K48E/V56S/H61Q/M62I/Y67F/V70L/A72N/T75S/E76T): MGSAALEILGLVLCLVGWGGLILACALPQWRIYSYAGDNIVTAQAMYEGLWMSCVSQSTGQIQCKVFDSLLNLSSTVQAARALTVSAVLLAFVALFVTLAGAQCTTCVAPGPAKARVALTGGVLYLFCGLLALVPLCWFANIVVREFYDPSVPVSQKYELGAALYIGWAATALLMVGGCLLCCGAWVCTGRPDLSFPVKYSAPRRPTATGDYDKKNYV

5-5-1 = target: T2, 5-5-1 (Homo sapiens, UniProt O00501, A162Q/K157R/L160F/Q156A/S151M/S155N/V152T); experiment: Epitope analysis FACS, chimeric protein 5-5-1; format: binding; conditions: antibody concentration 5 μg/mL; second extracellular loop substituted with hCLDN-1
T2 construct: expressed in transfected cells; host or cells: retrovirus-infected cells (pCX4pur)
T2 sequence (O00501 1-218 S151M/V152T/S155N/Q156A/K157R/L160F/A162Q): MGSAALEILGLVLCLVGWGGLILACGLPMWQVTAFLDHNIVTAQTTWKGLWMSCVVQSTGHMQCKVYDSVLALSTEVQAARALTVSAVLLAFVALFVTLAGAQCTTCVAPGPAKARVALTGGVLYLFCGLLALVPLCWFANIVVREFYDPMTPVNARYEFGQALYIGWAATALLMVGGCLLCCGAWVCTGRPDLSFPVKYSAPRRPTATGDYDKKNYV

hCLDN-5 [2] = experiment: Epitope analysis by hCLDN-5/mCLDN-5 chimeric CLDN (D68E, T75A, S151T, TM; FACS); format: binding, human; conditions: antibody concentration 5 μg/mL, mutants D68E
1-5-5 = target: T3, 1-5-5 (Homo sapiens, UniProt O00501, A34S/D37G/F35Y/G26A/H38D/K48E/L36A/M29Q/Q31R/T33Y/T45A/T46M/V32I/W47Y); experiment: Epitope analysis FACS, chimeric protein 1-5-5; format: binding; conditions: antibody concentration 5 μg/mL; N-terminal half of first extracellular loop substituted with hCLDN-1
T3 construct: expressed in transfected cells; host or cells: retrovirus-infected cells (pCX4pur)
T3 sequence (O00501 1-218 G26A/M29Q/Q31R/V32I/T33Y/A34S/F35Y/L36A/D37G/H38D/T45A/T46M/W47Y/K48E): T1 sequence (O00501 1-218 G26A/M29Q/Q31R/V32I/T33Y/A34S/F35Y/L36A/D37G/H38D/T45A/T46M/W47Y/K48E/V56S/H61Q/M62I/Y67F/V70L/A72N/T75S/E76T) with S56V, Q61H, I62M, F67Y, L70V, N72A, S75T, T76E

mCLDN-5 = target: T4, mCLDN-5 (Mus musculus, UniProt O54942); experiment: Evaluation of CLDN specificity by FACS, mCLDN-5-expressing cells; format: binding; conditions: hybridoma culture supernatant as primary antibody, FIG. 1B
T4 construct: expressed in transfected cells; host or cells: retrovirus-infected cells
T4 sequence (O54942 1-218): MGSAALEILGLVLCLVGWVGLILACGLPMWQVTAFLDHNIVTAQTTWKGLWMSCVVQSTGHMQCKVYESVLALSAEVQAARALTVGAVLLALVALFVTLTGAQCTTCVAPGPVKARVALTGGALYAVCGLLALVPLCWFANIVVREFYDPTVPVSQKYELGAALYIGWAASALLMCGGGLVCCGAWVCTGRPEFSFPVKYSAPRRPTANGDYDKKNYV

MDCKII/hCLDN-5 = experiment: TEER of CLDN-5 compulsory expression system, MDCKII/hCLDN-5; format: cell-based, human; conditions: MDCKII/hCLDN-5, FIG. 7B
[3] = test system: blood-brain barrier simulation system; experiment: Material permeability of blood-brain barrier simulation system (monkey BBB kit); format: cell-based; conditions: 12 hours after addition, FIG. 13
ZO-1 = ZO-1 localization by immunostaining in blood-brain barrier simulation system; format: cell-based; conditions: monkey BBB kit, 12 hours after addition, FIG. 14
CLDN-5 = CLDN-5 localization by immunostaining in blood-brain barrier simulation system; format: cell-based; conditions: monkey BBB kit, 12 hours after addition, FIG. 14
hCLDN-5 [4] = target: T5, hCLDN-5 (Homo sapiens, UniProt O00501); experiment: Western blotting operability, HT-1080/hCLDN-5 lysate; format: binding; conditions: SDS-PAGE under reducing condition, antibody concentration 10 μg/mL, FIG. 5
T5 construct: expressed in transfected cells; host or cells: HT-1080 human fibrosarcoma cells infected with a pCX4pur-derived retrovirus (HT-1080/hCLDN-5)
T5 sequence (O00501 1-218): T2 sequence (O00501 1-218 S151M/V152T/S155N/Q156A/K157R/L160F/A162Q) with M151S, T152V, N155S, A156Q, R157K, F160L, Q162A
Description: FIG. 5 illustrates western blotting images showing the CLDN-5 primary structure recognizability of the anti-CLDN-5 antibodies obtained in Example 3-6). The primary antibodies used are shown at the top of the images, and the used cells are shown under the primary antibodies. The names of proteins represented by bands are shown on the left side of the images.
Cell lysates were prepared from HT-1080/mock and HT-1080/hCLDN-5 obtained in Example 1-2), and the lysates were separated by SDS-PAGE under a reducing condition. By using the antibodies (antibody concentration: 10 μg/mL) obtained in Example 1 as primary antibodies, western blotting was performed according to the conventional method. As primary antibodies, commercial monoclonal antibodies (4C3C2, Invitrogen, 35-2500) recognizing the C-terminal of CLDN-5 were used as positive control, and β actin antibodies (Sigma Aldrich, A1978) were used as loading control. The results are illustrated in FIG. 5.

recognition of 1-1-5 (1-1-5): capable of recognizing
recognition of 5-5-1 (5-5-1): incapable of recognizing
B1: R3: rat anti-CLDN-5 monoclonal antibody, IgG2a/K; VH SEQ ID NO: 13, VL SEQ ID NO: 14; example of antibody G (antibody, V domains shown)
VH: EVQLVESGGGLVQPGRSLKLSCAASGFTFSDYYMAWVRQAPKKGLEWVASISYEGRNTYYGDSVKGRFTISRDNAKSTLYLQMKSLRSEDTATYYCTRHPRRYFDYWGQGVMVTVSS
VL: DIVMTQSPSSLAVSAGETVTMNCRSSQSLFSSGDQKKFLAWYQQKPGQSPKLLISLASTRESGVPDRFIGSGSGTDFTLTINNMQAEDLAIYYCQQHYDIPYTFGAGTKLEL
modifications: R3 VH; R3 VL
extracellular loop of CLDN-5 recognized (hCLDN-5 [1]): second extracellular loop
portion of hCLDN-5 recognized (hCLDN-5 [2]): domain around the 151st amino acid from the N-terminal present in the second extracellular loop

recognition of 1-1-5 (1-1-5): incapable of recognizing
recognition of 5-5-1 (5-5-1): capable of recognizing
recognition of 1-5-5 (1-5-5): incapable of recognizing
B2: M11: mouse anti-CLDN-5 monoclonal antibody, IgG2b/K; VH SEQ ID NO: 3, VL SEQ ID NO: 4; example of antibody B (antibody, V domains shown)
VH: QVQLKQSGPGLVQPSQSLSITCTVSGFSLIRYGVHWVRQSPGKGLEWLGVKWSGGSTDYNGAFKSRLSISKDNSKSQVFFKMNSLQADDTAIYYCARGLDGYYVPDVWGTGTSVTVS
VL: DIVMTQSHKFMSTSVGDRVSITCKASQDVSTNVAWYQQKPGQSPTLLIYWASTRHTGVPDRFTGSGSGTDYTLTISSVQAEDLALYYCQQHYSTPLTFGAGTKLELRR
modifications: M11 VH; M11 VL
extracellular loop of CLDN-5 recognized (hCLDN-5 [1]): first extracellular loop
portion of hCLDN-5 recognized (hCLDN-5 [2]): domain around the 68th amino acid from the N-terminal present in the first extracellular loop

recognition of 1-1-5 (1-1-5): capable of recognizing
recognition of 5-5-1 (5-5-1): incapable of recognizing
B3: M23: mouse anti-CLDN-5 monoclonal antibody, IgG2b/K; VH SEQ ID NO: 5, VL SEQ ID NO: 6; example of antibody C (antibody, V domains shown)
VH: EVQLQQSGPVLVKPGPSVMISCKASGFTFTDYYMHWVKQSHGKSLEWIGLVYPYNGGTDYNQKFKGKATLTVDTSSSTAYMELNSLTSEDSAVYYCARCLYDGLYFYAMDYWGQGTSVTVSS
VL: DIVMSQSPSSLAVSAGEKVTMTCKSSQSLLNSRARKNYLAWYQQKAGQSPKLLMYWASTRESGVPDRFTASGSGTDFTLTISSVQAEDLAVFYCKQSYNLPWTFGGGTKLEIKR
modifications: M23 VH; M23 VL
extracellular loop of CLDN-5 recognized (hCLDN-5 [1]): second extracellular loop
portion of hCLDN-5 recognized (hCLDN-5 [2]): domain around the 151st amino acid from the N-terminal present in the second extracellular loop

binding capacity to mCLDN-5 (mCLDN-5): extremely low
recognition of 1-1-5 (1-1-5): capable of recognizing
recognition of 5-5-1 (5-5-1): incapable of recognizing
B4: M48: mouse anti-CLDN-5 monoclonal antibody, IgG3/K; VH SEQ ID NO: 9, VL SEQ ID NO: 10; example of antibody E (antibody, V domains shown)
VH: QAYLQQSGAELVRPGASVKMSCKASGYTFTSYNMHWVKKTRRQGLEWIGAISPGNGNTSYNQKFKGKATLTVDKSSSTAYMQLSSLTSEDSAVYFCARDDGYYGALDYWGQGTSVTVSS
VL: DIVLTQSPATLSVTPGESVSLSCRASQGISTSIHWYQQKSNESPRLLIRYASQSISRIPSRFSGSGSGTDFTLTINGVESEDLSVYYCQQSYNLPLTFGSGTKLEI
modifications: M48 VH; M48 VL
extracellular loop of CLDN-5 recognized (hCLDN-5 [1]): second extracellular loop
portion of hCLDN-5 recognized (hCLDN-5 [2]): domain around the 151st amino acid from the N-terminal present in the second extracellular loop
reduction in TEER (MDCKII/hCLDN-5): greatly reducing TEER
4 kDa FITC-dextran permeability of the blood-brain barrier simulation system [3]: exhibited an activity of improving
localization properties of ZO-1 (ZO-1): did not change
localization properties of CLDN-5 in the intercellular space (CLDN-5): reduced

recognition of 1-1-5 (1-1-5): incapable of recognizing
recognition of 5-5-1 (5-5-1): capable of recognizing
recognition of 1-5-5 (1-5-5): capable of recognizing
B5: R2: rat anti-CLDN-5 monoclonal antibody, IgG2a/K; VH SEQ ID NO: 11, VL SEQ ID NO: 12; example of antibody F (antibody, V domains shown)
VH: QVQLKESGPGLVQPSQTLSLTCTVSGLSLIRNSVSWIRQPPGKGLEWMGVIWSNGGTEYNSTVKSRLSISRDTSKNQVFLKMNSLQTEDSAMFFCARTPDGYYPYFDYWGQGVMVTVSS
VL: B4 VL
modifications: R2 VH; R2 VL
extracellular loop of CLDN-5 recognized (hCLDN-5 [1]): first extracellular loop
portion of hCLDN-5 recognized (hCLDN-5 [2]): domain around the 68th amino acid from the N-terminal present in the first extracellular loop

recognition of 1-1-5 (1-1-5): capable of recognizing
recognition of 5-5-1 (5-5-1): incapable of recognizing
recognition of linear peptide (western blotting operability) (hCLDN-5 [4]): weakly recognized
B6: R14: rat anti-CLDN-5 monoclonal antibody, IgG2a/K; VH SEQ ID NO: 21, VL SEQ ID NO: 22; example of antibody K (antibody, V domains shown)
VH: QVTLKESGPGILQPSHTLSLTCSFSGFSLSTYGMGVSWIRQPSGKGLEWLASIWWNGRTYTNPSLMSRLTVSKDTSTNQAFLRVTSVETADTATYYCAHTPYDYSNLGWFTYWGQGTLVTVSS
VL: DILMTQTPSSQAVSAGEKVTVSCKSSQSLLYSGDQKSYLAWYQQKPGQSPKLLIYLASTRKSGVPDRFIGSGSGTDFTLTISSVQAEDLADYYCQQHYTYPLTFGSGTKLEI
modifications: R14 VH; R14 VL
extracellular loop of CLDN-5 recognized (hCLDN-5 [1]): second extracellular loop
portion of hCLDN-5 recognized (hCLDN-5 [2]): three-dimensional structure created by the transmembrane domain of hCLDN-5; also recorded: domain around the 151st amino acid from the N-terminal present in the second extracellular loop

From patent US11053313B2, “Anti-CLDN-5 antibody, and drug containing said antibody” (OSAKA UNIVERSITY, priority 2017, dated 2021)
